From article PMC10397247
Blank lines part the entries; values can stand above or below the binder they belong to.

Assays:
Assay in all cases: two-hybrid library CCNG1;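 also: natural log of median RNA to DNA barcode read ratio; higher means stronger binding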
O13-bP = molecular target: T1, O13-bP
T1 chain: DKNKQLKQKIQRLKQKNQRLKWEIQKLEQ

O14-bP = molecular target: T2, O14-bP
T2 chain: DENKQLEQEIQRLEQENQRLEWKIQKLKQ

O15-bP = molecular target: T3, O15-bP
T3 chain: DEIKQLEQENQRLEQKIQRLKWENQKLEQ

O11-bP = molecular target: T4, O11-bP
T4 chain: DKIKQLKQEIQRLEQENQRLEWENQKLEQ

O9-bP = molecular target: T5, O9-bP
T5 chain: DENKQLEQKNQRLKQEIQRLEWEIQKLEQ

O12-bP = molecular target: T6, O12-bP
T6 chain: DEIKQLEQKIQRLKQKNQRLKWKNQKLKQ

O5-bP = molecular target: T7, O5-bP
T7 chain: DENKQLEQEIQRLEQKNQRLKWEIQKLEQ

O4-bP = molecular target: T8, O4-bP
T8 chain: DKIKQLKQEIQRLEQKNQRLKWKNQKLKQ

O16-bP = molecular target: T9, O16-bP
T9 chain: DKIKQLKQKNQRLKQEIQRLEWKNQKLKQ

O7-bP = molecular target: T10, O7-bP
T10 chain: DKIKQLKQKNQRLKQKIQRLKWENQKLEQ

O2-bP = molecular target: T11, O2-bP
T11 chain: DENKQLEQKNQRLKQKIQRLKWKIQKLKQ

O3-bP = molecular target: T12, O3-bP
T12 chain: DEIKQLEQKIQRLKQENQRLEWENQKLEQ

O8-bP = molecular target: T13, O8-bP
T13 chain: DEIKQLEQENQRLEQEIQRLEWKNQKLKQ

O6-bP = molecular target: T14, O6-bP
T14 chain: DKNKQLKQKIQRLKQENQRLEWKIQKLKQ

4H3601-bA = molecular target: T15, 4H3601-bA
T15 chain: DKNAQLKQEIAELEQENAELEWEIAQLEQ

4H3907-bA = molecular target: T16, 4H3907-bA
T16 chain: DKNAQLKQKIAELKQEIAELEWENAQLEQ

4H1406-bA = molecular target: T17, 4H1406-bA
T17 chain: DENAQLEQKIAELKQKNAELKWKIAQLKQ

4H1387-bA = molecular target: T18, 4H1387-bA
T18 chain: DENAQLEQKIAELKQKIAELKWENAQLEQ

4H3592-bA = molecular target: T19, 4H3592-bA
T19 chain: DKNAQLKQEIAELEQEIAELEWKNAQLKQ

4H4038-bA = molecular target: T20, 4H4038-bA
T20 chain: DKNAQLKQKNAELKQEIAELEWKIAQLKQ

P5A-bN = molecular target: T21, P5A-bN
T21 chain: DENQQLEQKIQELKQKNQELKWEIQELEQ

P8A-bN = molecular target: T22, P8A-bN
T22 chain: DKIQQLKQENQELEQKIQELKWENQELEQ

P2A-bN = molecular target: T23, P2A-bN
T23 chain: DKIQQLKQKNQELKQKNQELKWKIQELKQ

P12A-bN = molecular target: T24, P12A-bN
T24 chain: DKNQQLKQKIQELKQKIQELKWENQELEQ

P9A-bN = molecular target: T25, P9A-bN
T25 chain: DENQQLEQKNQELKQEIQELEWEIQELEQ

P7A-bN = molecular target: T26, P7A-bN
T26 chain: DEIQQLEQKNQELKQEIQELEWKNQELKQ

P4A-bN = molecular target: T27, P4A-bN
T27 chain: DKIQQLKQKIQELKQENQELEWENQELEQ

P1A-bN = molecular target: T28, P1A-bN
T28 chain: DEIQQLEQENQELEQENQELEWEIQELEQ

P3A-bN = molecular target: T29, P3A-bN
T29 chain: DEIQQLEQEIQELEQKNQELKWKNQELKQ

P6A-bN = molecular target: T30, P6A-bN
T30 chain: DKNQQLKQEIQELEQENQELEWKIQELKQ

4H2915-bH = molecular target: T31, 4H2915-bH
T31 chain: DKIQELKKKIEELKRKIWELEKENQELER

4H2143-bH = molecular target: T32, 4H2143-bH
T32 chain: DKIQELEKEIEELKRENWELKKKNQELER

4H3858-bN = molecular target: T33, 4H3858-bN
T33 chain: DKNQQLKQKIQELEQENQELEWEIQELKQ

4H477-bH = molecular target: T34, 4H477-bH
T34 chain: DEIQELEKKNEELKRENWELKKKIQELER

4H2473-bH = molecular target: T35, 4H2473-bH
T35 chain: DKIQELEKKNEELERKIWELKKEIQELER

4H2839-bH = molecular target: T36, 4H2839-bH
T36 chain: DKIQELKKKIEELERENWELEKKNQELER

4H2223-bH = molecular target: T37, 4H2223-bH
T37 chain: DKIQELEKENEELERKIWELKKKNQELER

4H319-bH = molecular target: T38, 4H319-bH
T38 chain: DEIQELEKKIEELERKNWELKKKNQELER

4H2717-bH = molecular target: T39, 4H2717-bH
T39 chain: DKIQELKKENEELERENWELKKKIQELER

4H2692-bH = molecular target: T40, 4H2692-bH
T40 chain: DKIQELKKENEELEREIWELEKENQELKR

4H40-bH = molecular target: T41, 4H40-bH
T41 chain: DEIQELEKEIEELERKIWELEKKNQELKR

4H741-bH = molecular target: T42, 4H741-bH
T42 chain: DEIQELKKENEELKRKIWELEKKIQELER

4H3057-bH = molecular target: T43, 4H3057-bH
T43 chain: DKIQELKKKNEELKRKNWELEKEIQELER

4H2588-bH = molecular target: T44, 4H2588-bH
T44 chain: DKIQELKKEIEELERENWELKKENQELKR

4H2134-bH = molecular target: T45, 4H2134-bH
T45 chain: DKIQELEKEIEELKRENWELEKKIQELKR

4H2438-bH = molecular target: T46, 4H2438-bH
T46 chain: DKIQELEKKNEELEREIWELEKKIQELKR

4H2503-bH = molecular target: T47, 4H2503-bH
T47 chain: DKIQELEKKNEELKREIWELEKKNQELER

4H348-bH = molecular target: T48, 4H348-bH
T48 chain: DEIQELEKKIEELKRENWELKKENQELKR

4H492-bH = molecular target: T49, 4H492-bH
T49 chain: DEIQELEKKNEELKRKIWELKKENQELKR

4H3277-bH = molecular target: T50, 4H3277-bH
T50 chain: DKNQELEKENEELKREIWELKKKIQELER

O12-bH = molecular target: T51, O12-bH
T51 chain: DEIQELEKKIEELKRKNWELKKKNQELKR

O10-bH = molecular target: T52, O10-bH; conditions: mean of both orientations
T52 chain: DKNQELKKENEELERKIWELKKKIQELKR

O6-bH = molecular target: T53, O6-bH
T53 chain: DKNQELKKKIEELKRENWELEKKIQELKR

O15-bH = molecular target: T54, O15-bH
T54 chain: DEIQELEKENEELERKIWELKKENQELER

O4-bH = molecular target: T55, O4-bH
T55 chain: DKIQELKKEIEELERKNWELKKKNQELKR

O9-bH = molecular target: T56, O9-bH; conditions: mean of both orientations
T56 chain: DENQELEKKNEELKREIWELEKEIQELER

O8-bH = molecular target: T57, O8-bH
T57 chain: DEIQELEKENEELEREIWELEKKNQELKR

O14-bH = molecular target: T58, O14-bH
T58 chain: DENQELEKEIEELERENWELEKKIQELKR

O7-bH = molecular target: T59, O7-bH
T59 chain: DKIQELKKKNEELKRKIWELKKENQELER

O16-bH = molecular target: T60, O16-bH
T60 chain: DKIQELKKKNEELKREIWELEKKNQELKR

O13-bH = molecular target: T61, O13-bH
T61 chain: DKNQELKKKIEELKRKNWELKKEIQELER

O5-bH = molecular target: T62, O5-bH
T62 chain: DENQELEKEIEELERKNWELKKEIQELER

O2-bH = molecular target: T63, O2-bH
T63 chain: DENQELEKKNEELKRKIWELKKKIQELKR

O3-bH = molecular target: T64, O3-bH
T64 chain: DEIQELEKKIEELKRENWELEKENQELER

O11-bH = molecular target: T65, O11-bH
T65 chain: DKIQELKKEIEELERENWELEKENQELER

interaction score (O13-bP): -1.07 | interaction score (O14-bP): -0.129 | interaction score (O15-bP): -0.41 | interaction score (O11-bP): -0.79 | interaction score (O9-bP): -0.645 | interaction score (O12-bP): 0.837 | interaction score (O5-bP): -0.395 | interaction score (O4-bP): 0.69 | interaction score (O16-bP): -1.05 | interaction score (O7-bP): -1.03 | interaction score (O2-bP): -1.44 | interaction score (O3-bP): 0.514 | interaction score (O8-bP): -0.376 | interaction score (O6-bP): -0.577
Binder: DKIKQLKQEIQRLEQENQRLEWENQKLEQ [O11-bP]

interaction score (P5A-bN): -1.2 | interaction score (P8A-bN): -1.71 | interaction score (P2A-bN): -0.94 | interaction score (P12A-bN): -0.758 | interaction score (P9A-bN): -1.28 | interaction score (P7A-bN): -0.617 | interaction score (P4A-bN): -0.221 | interaction score (P1A-bN): -1.71 | interaction score (P3A-bN): 1.82 | interaction score (P6A-bN): 0.295
Binder: DKNQQLKQKIQELKQKIQELKWENQELEQ [P12A-bN]

interaction score (O12-bH): -1.91 | interaction score (O10-bH): 0.392 | interaction score (O6-bH): 0.0839 | interaction score (O15-bH): -0.726 | interaction score (O4-bH): 0.524 | interaction score (O9-bH): 0.317 | interaction score (O8-bH): -0.465 | interaction score (O14-bH): -1.44 | interaction score (O7-bH): 0.671 | interaction score (O16-bH): 0.522 | interaction score (O13-bH): 0.177 | interaction score (O5-bH): 0.349 | interaction score (O2-bH): 0.103 | interaction score (O3-bH): 1.13 | interaction score (O11-bH): -0.919
Binder: DKNQELKKENEELERKIWELKKKIQELKR [O10-bH]

The next lines start with the binder.

Binder: DENAQLEQKIAELKQKIAELKWENAQLEQ [4H1387-bA]
interaction score (4H3601-bA): -0.539 | interaction score (4H3907-bA): 1.32 | interaction score (4H1406-bA): -1.1 | interaction score (4H1387-bA): -0.828 | interaction score (4H3592-bA): 2.02 | interaction score (4H4038-bA): 0.838

Binder: DKIQELEKEIEELKRENWELEKKIQELKR [4H2134-bH]
interaction score (4H2915-bH): 1.56 | interaction score (4H2143-bH): 0.0686 | interaction score (4H3858-bN): 0.573 | interaction score (4H477-bH): 1.08 | interaction score (4H2473-bH): 0.459 | interaction score (4H2839-bH): 0.785 | interaction score (4H2223-bH): -0.653 | interaction score (4H319-bH): 0.925 | interaction score (4H2717-bH): 1.07 | interaction score (4H2692-bH): 0.18 | interaction score (4H40-bH): -0.995 | interaction score (4H741-bH): 0.37 | interaction score (4H3057-bH): 1.45 | interaction score (4H2588-bH): 1.01 | interaction score (4H2134-bH): 0.746 | interaction score (4H2438-bH): 0.0398 | interaction score (4H2503-bH): 1.45 | interaction score (4H348-bH): -0.551 | interaction score (4H492-bH): 0.362 | interaction score (4H3277-bH): -0.74
